{"source": "paper PMC9306533", "about": "(Journal of Neurochemistry, 2022)", "key": {"[1]": {"target": "GRK3 (G protein‐coupled receptor kinase 3) (UniProt P35626)", "assay": "BRET, CB1R-YFP and GRK3-Rluc8", "details": "sites S425,S429"}, "β‐arrestin2": {"target": "β‐arrestin2 (UniProt P32121)", "assay": "BRET, CB1R-YFP and β-arrestin2-Rluc", "details": "reference: wild type; sites S425,S429"}, "CB1R‐YFP (wild type)": {"target": "CB1R‐YFP (wild type) (human, UniProt P21554 1-472)", "assay": "FRET or BRET"}, "CB1R_6A‐YFP": {"target": "CB1R_6A‐YFP (human, UniProt P21554 1-472, serine/threonine residues of 460TMSVSTDTS468 to alanine)", "assay": "FRET or BRET"}, "CB1R_2D‐YFP": {"target": "CB1R_2D‐YFP (human, UniProt P21554 1-472, S425 mutated into aspartate | S429D)", "assay": "FRET or BRET"}, "CB1R_6D‐YFP": {"target": "CB1R_6D‐YFP (human, UniProt P21554 1-472, serine/threonine residues of 460TMSVSTDTS468 to aspartic acid)", "assay": "FRET or BRET"}, "CB1R_2A‐YFP": {"target": "CB1R_2A‐YFP (human, UniProt P21554 1-472, S425A | S429A)", "assay": "FRET or BRET"}, "[2]": {"details": "reference: 460…468 mutant, S425/S429 intact"}}, "data": [{"molecule": "Cannabinoid receptor 1 (CB1R) (from UniProt P21554) 425AMGDA429_460…468", "values": [{"measurement": "other: agonist-promoted mBRET at 5 min", "setting": "[1]; [2]", "value": "weaker; reference 28.95 ± 2.18"}, {"measurement": "other: agonist-promoted mBRET at 30 min", "setting": "[1]; [2]", "value": "stronger; reference 27.11 ± 3.71"}]}, {"molecule": "Cannabinoid receptor 1 (CB1R) (from UniProt P21554) CB1R_2A (S425A, S429A)", "values": [{"measurement": "other: agonist-promoted mBRET at 5 min", "setting": "[1]; reference: wild type", "value": "stronger; reference 23.62 ± 3.54"}, {"measurement": "other: agonist-promoted mBRET at 5 min", "setting": "β‐arrestin2", "value": "weaker; reference 29.33 ± 1.93"}]}, {"molecule": "Cannabinoid receptor 1 (CB1R) (from UniProt P21554) CB1R_2D (S425D, S429D)", "values": [{"measurement": "other: agonist-promoted mBRET at 5 min", "setting": "[1]; reference: wild type", "value": "same; reference 35.54 ± 2.26"}, {"measurement": "other: agonist-promoted mBRET at 5 min", "setting": "β‐arrestin2", "value": "weaker; reference 29.93 ± 1.51"}]}, {"molecule": "GRK3‐Rluc8 (enzyme, human, UniProt P35626 1-688, looked up) MADLEAVLADVSYLMAMEKSKATPAARASKRIVLPEPSIRSVMQKYLAERNEITFDKIFNQKIGFLLFKDFCLNEINEAVPQVKFYEEIKEYEKLDNEEDRLCRSRQIYDAYIMKELLSCSHPFSKQAVEHVQSHLSKKQVTSTLFQPYIEEICESLRGDIFQKFMESDKFTRFCQWKNVELNIHLTMNEFSVHRIIGRGGFGEVYGCRKADTGKMYAMKCLDKKRIKMKQGETLALNERIMLSLVSTGDCPFIVCMTYAFHTPDKLCFILDLMNGGDLHYHLSQHGVFSEKEMRFYATEIILGLEHMHNRFVVYRDLKPANILLDEHGHARISDLGLACDFSKKKPHASVGTHGYMAPEVLQKGTAYDSSADWFSLGCMLFKLLRGHSPFRQHKTKDKHEIDRMTLTVNVELPDTFSPELKSLLEGLLQRDVSKRLGCHGGGSQEVKEHSFFKGVDWQHVYLQKYPPPLIPPRGEVNAADAFDIGSFDEEDTKGIKLLDCDQELYKNFPLVISERWQQEVTETVYEAVNADTDKIEARKRAKNKQLGHEEDYALGKDCIMHGYMLKLGNPFLTQWQRRYFYLFPNRLEWRGEGESRQNLLTMEQILSVEETQIKDKKCILFRIKGGKQFVLQCESDPEFVQWKKELNETFKEAQRLLRRAPKFLNKPRSGTVELPKPSLCHRNSNGL", "values": [{"measurement": "agonist-promoted mBRET at 30 min", "setting": "CB1R‐YFP (wild type)", "value": 8.82, "unit": "mBRET"}, {"measurement": "agonist-promoted mBRET at 5 min", "setting": "CB1R_6A‐YFP", "value": 9.88, "unit": "mBRET"}, {"measurement": "agonist-promoted mBRET at 5 min", "setting": "CB1R_2D‐YFP", "value": 31.7, "unit": "mBRET"}, {"measurement": "agonist-promoted mBRET at 5 min", "setting": "CB1R_6D‐YFP", "value": 27.5, "unit": "mBRET"}, {"measurement": "agonist-promoted mBRET at 5 min", "setting": "CB1R_2A‐YFP", "value": 63.6, "unit": "mBRET"}]}]}
